Measured values: patent publication US20250340604A1 (ENKEFALOS BIOSCIENCES, published 2025)

Tests used:
Assay in all cases: phage selection and phage ELISA on coated receptor ECD
[1] = target: T1, human leptin receptor (Hu ObR), recombinant extracellular domain (human, UniProt P48357 22-839)
T1 construct: extracellular domain; Recombinant Fc fusion (R&D Systems) or His-tagged (Sino Biologicals)
T1 sequence (looked up): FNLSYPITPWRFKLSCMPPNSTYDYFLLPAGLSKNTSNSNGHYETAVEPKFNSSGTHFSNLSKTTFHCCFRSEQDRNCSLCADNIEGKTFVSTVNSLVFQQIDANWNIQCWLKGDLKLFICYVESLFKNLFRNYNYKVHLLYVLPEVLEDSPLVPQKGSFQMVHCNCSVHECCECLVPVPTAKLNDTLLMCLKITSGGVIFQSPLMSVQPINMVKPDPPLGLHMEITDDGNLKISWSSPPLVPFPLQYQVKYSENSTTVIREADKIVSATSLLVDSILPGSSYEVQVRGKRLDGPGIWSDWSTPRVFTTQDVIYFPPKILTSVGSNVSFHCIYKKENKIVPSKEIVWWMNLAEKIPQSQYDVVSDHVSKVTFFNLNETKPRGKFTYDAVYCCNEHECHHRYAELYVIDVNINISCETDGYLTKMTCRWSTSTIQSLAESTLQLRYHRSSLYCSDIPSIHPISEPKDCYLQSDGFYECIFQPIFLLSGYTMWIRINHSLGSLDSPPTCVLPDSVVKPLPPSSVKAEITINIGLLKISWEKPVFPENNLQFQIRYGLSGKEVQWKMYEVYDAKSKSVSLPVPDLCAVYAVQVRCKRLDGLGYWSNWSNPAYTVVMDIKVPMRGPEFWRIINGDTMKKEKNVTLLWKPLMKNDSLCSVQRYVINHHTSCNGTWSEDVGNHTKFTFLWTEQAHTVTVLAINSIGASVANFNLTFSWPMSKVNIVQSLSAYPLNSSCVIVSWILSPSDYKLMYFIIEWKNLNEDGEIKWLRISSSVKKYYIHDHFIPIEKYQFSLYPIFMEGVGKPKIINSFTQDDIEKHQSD

[2] = target: T2, human receptor for advanced glycation-end products (Hu RAGE), recombinant extracellular domain (human, UniProt Q15109 23-342)
T2 construct: extracellular domain; Recombinant Fc fusion (R&D Systems) or His-tagged (Sino Biologicals)
T2 sequence (Q15109 23-342): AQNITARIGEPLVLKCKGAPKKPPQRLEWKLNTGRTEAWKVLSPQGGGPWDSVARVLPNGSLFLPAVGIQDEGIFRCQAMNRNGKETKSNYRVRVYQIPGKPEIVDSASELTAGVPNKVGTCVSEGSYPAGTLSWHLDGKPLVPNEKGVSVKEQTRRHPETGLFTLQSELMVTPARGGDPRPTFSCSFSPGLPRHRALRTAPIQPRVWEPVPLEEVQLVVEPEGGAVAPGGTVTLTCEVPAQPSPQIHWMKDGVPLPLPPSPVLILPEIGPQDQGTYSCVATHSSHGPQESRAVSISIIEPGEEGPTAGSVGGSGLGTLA

[3] = target: T3, human HER3/ErbB3 (Hu ErbB3), recombinant extracellular domain (human, UniProt P21860 20-643)
T3 construct: extracellular domain; Recombinant Fc fusion (R&D Systems) or His-tagged (Sino Biologicals)

[4] = target: T4, human transferrin receptor (Hu TrfR), recombinant extracellular domain (human, UniProt P02786 89-760)
T4 construct: extracellular domain; Recombinant Fc fusion (R&D Systems) or His-tagged (Sino Biologicals); also called human TfR
T4 sequence (P02786 89-760): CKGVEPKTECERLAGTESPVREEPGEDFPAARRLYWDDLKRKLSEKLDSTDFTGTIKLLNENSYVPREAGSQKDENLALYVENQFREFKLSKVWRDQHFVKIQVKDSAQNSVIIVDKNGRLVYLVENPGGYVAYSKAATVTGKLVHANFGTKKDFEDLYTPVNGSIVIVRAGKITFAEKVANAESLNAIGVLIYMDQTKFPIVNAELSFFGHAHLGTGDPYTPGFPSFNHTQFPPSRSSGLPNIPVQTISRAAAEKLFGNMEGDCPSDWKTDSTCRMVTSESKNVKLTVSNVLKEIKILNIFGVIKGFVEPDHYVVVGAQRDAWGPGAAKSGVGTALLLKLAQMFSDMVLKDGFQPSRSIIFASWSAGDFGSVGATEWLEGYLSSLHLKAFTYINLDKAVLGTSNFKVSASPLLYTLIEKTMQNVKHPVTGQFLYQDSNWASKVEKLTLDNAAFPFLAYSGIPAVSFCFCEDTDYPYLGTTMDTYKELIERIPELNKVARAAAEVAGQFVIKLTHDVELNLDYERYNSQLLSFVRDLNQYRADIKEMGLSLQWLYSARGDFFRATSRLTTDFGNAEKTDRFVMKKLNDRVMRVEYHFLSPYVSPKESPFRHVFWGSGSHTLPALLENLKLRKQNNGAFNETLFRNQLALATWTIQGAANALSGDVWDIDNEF

[5] = target: T5, mouse transferrin receptor (Mu TrfR), recombinant extracellular domain (mouse, UniProt Q62351 89-763)
T5 construct: extracellular domain; Recombinant Fc fusion (R&D Systems) or His-tagged (Sino Biologicals)
T5 sequence (Q62351 89-763): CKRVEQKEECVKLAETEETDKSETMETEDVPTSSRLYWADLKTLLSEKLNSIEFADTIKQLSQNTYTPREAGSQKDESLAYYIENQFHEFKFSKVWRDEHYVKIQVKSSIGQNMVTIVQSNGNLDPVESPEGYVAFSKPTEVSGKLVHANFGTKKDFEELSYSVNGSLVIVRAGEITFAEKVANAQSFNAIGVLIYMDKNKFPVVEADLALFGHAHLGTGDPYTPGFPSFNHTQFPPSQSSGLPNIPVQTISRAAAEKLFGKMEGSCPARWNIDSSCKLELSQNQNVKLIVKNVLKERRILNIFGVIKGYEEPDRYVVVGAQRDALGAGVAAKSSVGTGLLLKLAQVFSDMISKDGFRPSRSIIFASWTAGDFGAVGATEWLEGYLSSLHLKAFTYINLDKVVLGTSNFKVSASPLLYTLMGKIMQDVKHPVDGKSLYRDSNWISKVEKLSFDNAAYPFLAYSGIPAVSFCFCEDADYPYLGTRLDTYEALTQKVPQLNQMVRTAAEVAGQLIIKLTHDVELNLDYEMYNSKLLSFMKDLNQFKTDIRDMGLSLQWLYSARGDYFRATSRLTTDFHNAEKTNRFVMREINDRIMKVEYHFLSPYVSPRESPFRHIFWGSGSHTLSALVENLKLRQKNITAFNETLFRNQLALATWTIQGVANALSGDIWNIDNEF

GGVCQSFFWWHSWFGVCRRDSDCPGACICRGNGYCGSGSD (designed binder) [CYC2]: binds [1].

GGVCVSNFWFMHWFGVCRRDSDCPGACICRGNGYCGSGSD (designed binder) [CYC29]: binds [2].

GGVCPTQTWWFWLPAQCRRDSDCPGACICRGNGYCGSGSD (designed binder) [CYC10]: binds [1].

GGVCWWDKWVFPISRQCRRDSDCPGACICRGNGYCGSGSD (designed binder) [CYC16]: binds [3].

GGVCYVDWPWTLTLWYCRRDSDCPGACICRGNGYCGSGSD (designed binder) [CYC11]: binds [1].

GGVCQMVSEHWVARVWCRRDSDCPGACICRGNGYCGSGSD (designed binder) [CYC45]: binds [4].

GGVCPWPKWTYMAQKYCRRDSDCPGACICRGNGYCGSGSD (designed binder) [CYC1]: binds [1].

GGVCHVGYWWHIWMGACRRDSDCPGACICRGNGYCGSGSD (designed binder) [CYC28]: binds [2].

GGVCMHNSASHNIQMQCRRDSDCPGACICRGNGYCGSGSD (designed binder) [CYC21]: binds [5].

GGVCDPRWLAGWGSCRRDSDCPETCICRGNGYCASGYD (designed binder) [CYC18]: binds [4].

GGVCEWSDWFPYEFLFCRRDSDCPGACICRGNGYCGSGSD (designed binder) [CYC12]: binds [1].

GGVCHNLFVIESILFWCRRDSDCPGACICRGNGYCGSGSD (designed binder) [CYC23]: binds [5].

GGVCEYFRWHLDSWGECRRDSDCPGACICRGNGYCGSGSD (designed binder) [CYC40]: binds [4].

GGVCLYEAWHLPSWGQCRRDSDCPGACICRGNGYCGSGSD (designed binder) [CYC44]: binds [4].

GGVCWQGMMLFFVGEKCRRDSDCPGACICRGNGYCGSGSD (designed binder) [CYC5]: binds [1].

GGVCQTVFPMWPWYQLCRRDSDCPGACICRGNGYCGSGSD (designed binder) [CYC22]: binds [5].

GGVCGWFYWYHKWFGPCRRDSDCPGACICRGNGYCGSGSD (designed binder) [CYC6]: binds [1].

GGVCFLWFWYGFSRTLCRRDSDCPGACICRGNGYCGSGSD (designed binder) [CYC14]: binds [1].

GGVCVQPWYSWFMEQGCRRDSDCPGACICRGNGYCGSGSD (designed binder) [CYC9]: binds [1].

GGVCYDWGWFWPFEQYCRRDSDCPGACICRGNGYCGSGSD (designed binder) [CYC7]: binds [1].

GGVCAYVHDWYHHVMYCRRDSDCPGACICRGNGYCGSGSD (designed binder) [CYC20]: binds [5].

GGVCHSQFWPWEWYQFCRRDSDCPGACICRGNGYCGSGSD (designed binder) [CYC3]: binds [1].

GGVCKALWYMGWGTCRRDSDCPGACICRGNGYCGSGSD (designed binder) [CYC24]: binds [4].

GGVCKQNWLPGWGTCRRDSDCPGACICRGNGYCGSGSD (designed binder) [CYC25]: binds [4].

GGVCQEERWHMHSWGPCRRDSDCPGACICRGNGYCGSGSD (designed binder) [CYC42]: binds [4].

GGVCPTAMWFDWFTVYCRRDSDCPGACICRGNGYCGSGSD (designed binder) [CYC13]: binds [1].

GGVCLVSQWHIESWGQCRRDSDCPGACICRGNGYCGSGSD (designed binder) [CYC41]: binds [4].

GGVCTVWPFVWWGGVPCRRDSDCPGACICRGNGYCGSGSD (designed binder) [CYC19]: binds [5].

GGVCRYQEWHMESWGSCRRDSDCPGACICRGNGYCGSGSD (designed binder) [CYC43]: binds [4].

GGVCWRWTPKIWVLEEMSSCSDCPGACICRGNGYCGSGSD (designed binder) [CYC4]: binds [1].

GGVCSDRWDWMFATWLCRRDSDCPGACICRGNGYCGSGSD (designed binder) [CYC8]: binds [1].

GGVCRHSYSQIPLWCRRDSDCPGACICRGNGYCGSGSD (designed binder) [CYC15]: binds [3].
